Laboratory results taken from the supplement of paper PMC10065799, “High-throughput profiling of sequence recognition by tyrosine kinases and SH2 domains using bacterial peptide display” (eLife, 2023).

How the values were obtained:
AncSZ = test: phosphorylation enrichment, bacterial display (enrichment ratio); higher = better substrate or ligand; peptides without Tyr show the background
EPHB1 = EPHB1 (UniProt P54762); test: as above
EPHB2 = EPHB2 (UniProt P29323); test: as above
FGFR1 = FGFR1 (UniProt P11362); test: as above
FGFR1, sequence (P11362 whole entry, looked up): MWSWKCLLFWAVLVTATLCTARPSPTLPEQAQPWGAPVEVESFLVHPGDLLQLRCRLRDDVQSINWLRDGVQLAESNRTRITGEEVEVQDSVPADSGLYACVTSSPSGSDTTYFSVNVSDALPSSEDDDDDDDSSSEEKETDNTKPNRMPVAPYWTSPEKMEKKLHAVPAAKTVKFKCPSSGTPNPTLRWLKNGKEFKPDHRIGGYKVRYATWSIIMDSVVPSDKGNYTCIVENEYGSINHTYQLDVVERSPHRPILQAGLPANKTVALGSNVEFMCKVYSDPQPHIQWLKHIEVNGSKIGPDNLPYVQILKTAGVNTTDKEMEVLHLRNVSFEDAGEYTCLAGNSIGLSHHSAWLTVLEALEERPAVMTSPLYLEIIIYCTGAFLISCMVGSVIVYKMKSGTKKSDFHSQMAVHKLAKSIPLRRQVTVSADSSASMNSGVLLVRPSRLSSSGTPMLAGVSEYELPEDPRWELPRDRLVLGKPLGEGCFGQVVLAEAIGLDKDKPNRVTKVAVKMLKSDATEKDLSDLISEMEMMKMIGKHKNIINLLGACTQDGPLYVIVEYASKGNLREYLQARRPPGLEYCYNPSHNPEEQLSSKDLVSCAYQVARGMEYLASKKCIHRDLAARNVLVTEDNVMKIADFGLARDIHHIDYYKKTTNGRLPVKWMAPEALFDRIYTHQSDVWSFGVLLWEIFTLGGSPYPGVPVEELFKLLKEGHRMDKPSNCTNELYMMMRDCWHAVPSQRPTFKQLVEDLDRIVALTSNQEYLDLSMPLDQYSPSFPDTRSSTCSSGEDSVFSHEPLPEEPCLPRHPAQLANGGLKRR

FGFR3 = FGFR3 (UniProt P22607); test: as above
Fer (mouse) = test: as above
Fes = Fes (UniProt P07332); test: as above
Fes, sequence (P07332 whole entry, looked up): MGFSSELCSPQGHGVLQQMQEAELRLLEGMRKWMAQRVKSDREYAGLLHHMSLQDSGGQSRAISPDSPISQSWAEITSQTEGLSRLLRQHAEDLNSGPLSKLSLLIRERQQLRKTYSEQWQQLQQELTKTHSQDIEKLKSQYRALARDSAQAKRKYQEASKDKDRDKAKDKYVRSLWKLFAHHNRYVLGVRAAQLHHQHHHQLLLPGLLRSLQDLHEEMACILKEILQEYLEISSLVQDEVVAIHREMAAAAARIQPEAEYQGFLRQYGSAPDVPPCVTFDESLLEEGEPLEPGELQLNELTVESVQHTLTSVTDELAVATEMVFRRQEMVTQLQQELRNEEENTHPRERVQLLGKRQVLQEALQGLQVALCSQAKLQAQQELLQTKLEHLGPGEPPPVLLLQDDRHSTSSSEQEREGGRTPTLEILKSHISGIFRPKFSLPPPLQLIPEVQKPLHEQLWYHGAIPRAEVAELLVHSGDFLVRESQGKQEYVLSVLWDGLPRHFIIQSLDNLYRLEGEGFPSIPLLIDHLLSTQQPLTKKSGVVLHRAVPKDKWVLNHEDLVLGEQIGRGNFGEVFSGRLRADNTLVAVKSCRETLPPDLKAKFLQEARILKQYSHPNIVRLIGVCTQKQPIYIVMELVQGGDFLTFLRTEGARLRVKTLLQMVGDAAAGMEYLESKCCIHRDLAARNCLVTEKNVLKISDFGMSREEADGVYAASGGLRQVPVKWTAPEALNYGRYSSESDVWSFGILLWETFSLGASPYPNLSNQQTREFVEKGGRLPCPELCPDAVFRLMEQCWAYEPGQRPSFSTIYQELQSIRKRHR

Fyn = Fyn (UniProt P06241); test: as above
Fyn, sequence (P06241 whole entry, looked up): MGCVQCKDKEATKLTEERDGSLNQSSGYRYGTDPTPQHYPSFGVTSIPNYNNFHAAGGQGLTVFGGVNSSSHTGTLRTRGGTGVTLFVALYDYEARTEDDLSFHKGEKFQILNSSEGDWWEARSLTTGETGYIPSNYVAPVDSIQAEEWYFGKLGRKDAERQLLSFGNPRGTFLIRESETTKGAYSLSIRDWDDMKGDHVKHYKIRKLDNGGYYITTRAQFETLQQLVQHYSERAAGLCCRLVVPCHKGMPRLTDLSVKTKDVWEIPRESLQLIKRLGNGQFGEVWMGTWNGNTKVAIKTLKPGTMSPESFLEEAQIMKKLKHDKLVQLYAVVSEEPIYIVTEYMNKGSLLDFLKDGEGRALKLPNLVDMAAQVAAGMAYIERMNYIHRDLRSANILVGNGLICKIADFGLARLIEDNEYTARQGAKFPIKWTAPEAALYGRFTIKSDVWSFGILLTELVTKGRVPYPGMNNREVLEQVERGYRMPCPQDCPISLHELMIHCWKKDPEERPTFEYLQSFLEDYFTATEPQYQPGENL

Hck = Hck (UniProt P08631); test: as above
Hck, sequence (P08631 whole entry, looked up): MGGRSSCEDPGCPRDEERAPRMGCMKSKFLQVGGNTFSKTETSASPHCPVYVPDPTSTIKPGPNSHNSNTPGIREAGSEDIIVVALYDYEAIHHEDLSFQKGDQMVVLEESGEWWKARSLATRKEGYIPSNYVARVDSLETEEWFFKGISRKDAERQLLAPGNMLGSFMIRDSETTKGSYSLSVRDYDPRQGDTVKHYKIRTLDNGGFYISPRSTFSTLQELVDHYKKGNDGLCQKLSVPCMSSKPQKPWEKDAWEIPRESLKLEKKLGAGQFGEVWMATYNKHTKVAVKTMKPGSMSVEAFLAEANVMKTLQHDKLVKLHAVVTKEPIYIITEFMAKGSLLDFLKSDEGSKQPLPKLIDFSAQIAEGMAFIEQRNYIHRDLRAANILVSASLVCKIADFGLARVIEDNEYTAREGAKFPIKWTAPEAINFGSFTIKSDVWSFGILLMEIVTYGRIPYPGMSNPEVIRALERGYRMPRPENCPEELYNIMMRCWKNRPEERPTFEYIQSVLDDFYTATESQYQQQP

Jak2 = Jak2 (UniProt O60674); test: as above
Jak2, sequence (O60674 whole entry, looked up): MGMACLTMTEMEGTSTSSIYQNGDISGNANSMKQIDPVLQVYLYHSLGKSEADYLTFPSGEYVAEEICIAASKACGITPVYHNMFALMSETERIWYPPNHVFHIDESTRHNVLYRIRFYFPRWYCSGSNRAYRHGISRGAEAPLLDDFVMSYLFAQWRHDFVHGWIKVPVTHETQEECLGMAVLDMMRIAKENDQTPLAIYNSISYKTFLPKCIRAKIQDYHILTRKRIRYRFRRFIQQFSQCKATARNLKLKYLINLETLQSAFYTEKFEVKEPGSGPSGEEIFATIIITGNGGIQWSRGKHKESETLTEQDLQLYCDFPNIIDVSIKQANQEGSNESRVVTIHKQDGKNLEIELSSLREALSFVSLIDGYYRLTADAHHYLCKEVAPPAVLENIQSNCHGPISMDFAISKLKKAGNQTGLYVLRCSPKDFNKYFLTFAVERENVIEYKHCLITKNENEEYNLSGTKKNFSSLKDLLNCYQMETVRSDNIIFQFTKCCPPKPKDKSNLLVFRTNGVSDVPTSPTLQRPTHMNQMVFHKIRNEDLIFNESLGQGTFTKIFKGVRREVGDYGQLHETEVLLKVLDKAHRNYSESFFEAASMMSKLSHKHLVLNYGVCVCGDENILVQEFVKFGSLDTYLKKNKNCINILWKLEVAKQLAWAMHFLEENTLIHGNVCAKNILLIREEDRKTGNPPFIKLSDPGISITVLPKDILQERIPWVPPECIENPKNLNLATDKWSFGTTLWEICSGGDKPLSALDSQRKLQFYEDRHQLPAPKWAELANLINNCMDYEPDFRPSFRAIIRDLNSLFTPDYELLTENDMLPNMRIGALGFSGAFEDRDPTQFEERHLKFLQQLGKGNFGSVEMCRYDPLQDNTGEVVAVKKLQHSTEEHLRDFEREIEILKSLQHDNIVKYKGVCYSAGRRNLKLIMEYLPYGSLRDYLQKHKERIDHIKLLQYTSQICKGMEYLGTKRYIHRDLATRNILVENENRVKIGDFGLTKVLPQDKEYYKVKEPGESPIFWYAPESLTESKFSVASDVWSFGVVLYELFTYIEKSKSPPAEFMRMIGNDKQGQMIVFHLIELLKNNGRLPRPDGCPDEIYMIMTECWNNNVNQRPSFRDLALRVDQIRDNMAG

MERTK = MERTK (UniProt Q12866); test: as above
MERTK, sequence (Q12866 whole entry, looked up): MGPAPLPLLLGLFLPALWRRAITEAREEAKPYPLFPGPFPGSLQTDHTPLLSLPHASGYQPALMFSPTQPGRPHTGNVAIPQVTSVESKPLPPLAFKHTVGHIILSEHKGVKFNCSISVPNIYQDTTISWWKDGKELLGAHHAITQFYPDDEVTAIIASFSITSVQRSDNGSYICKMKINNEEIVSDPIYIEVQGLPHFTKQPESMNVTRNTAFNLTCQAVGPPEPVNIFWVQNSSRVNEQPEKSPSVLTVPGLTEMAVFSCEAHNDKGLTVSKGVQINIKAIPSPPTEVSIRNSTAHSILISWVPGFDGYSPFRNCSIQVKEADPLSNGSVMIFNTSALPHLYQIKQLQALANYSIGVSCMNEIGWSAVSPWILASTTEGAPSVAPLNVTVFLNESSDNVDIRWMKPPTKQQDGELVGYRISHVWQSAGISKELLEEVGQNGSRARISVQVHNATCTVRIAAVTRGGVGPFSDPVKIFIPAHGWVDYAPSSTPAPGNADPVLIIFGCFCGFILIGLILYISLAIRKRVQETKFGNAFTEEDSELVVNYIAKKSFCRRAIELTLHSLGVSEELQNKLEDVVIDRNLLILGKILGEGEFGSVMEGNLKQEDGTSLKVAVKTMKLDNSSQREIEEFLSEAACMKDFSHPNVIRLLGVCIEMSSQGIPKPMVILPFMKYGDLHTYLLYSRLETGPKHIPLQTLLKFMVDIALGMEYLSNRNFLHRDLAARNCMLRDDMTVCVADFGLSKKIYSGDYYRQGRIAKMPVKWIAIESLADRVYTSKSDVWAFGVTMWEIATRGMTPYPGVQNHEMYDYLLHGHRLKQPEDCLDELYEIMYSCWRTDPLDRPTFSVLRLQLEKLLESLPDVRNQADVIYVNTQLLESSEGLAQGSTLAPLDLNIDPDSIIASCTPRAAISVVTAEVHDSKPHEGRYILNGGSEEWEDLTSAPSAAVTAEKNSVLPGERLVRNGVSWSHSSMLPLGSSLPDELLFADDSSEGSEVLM

c-Abl (mouse) = test: as above
c-Src = test: as above
Grb2 SH2 = Grb2 SH2 (UniProt P62993); test: SH2 binding enrichment of the phosphorylated peptide, bacterial display (enrichment ratio); higher = better substrate or ligand; peptides without Tyr show the background
SHP2-C SH2 = test: as above
c-Src SH2 = test: as above
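For SH2 binding enrichment of the phosphorylated peptide, bacterial display in this document: peptide library displayed on the E. coli surface as eCPX fusions, selected cells deep-sequenced, score is each peptide's frequency after selection divided by its frequency in the input.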
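For phosphorylation enrichment, bacterial display in this document: 11-residue human phosphosite peptides and single-mutation variants displayed on the E. coli surface, counted by deep sequencing, each peptide's frequency after selection divided by its frequency in the unselected input library; frequency after pTyr selection over input frequency; kinase dosed for 20-30% of maximal phosphorylation in three min.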

Sequence | SH2 binding enrichment (Grb2 SH2) | SH2 binding enrichment (SHP2-C SH2) | SH2 binding enrichment (c-Src SH2) | phosphorylation enrichment (AncSZ) | phosphorylation enrichment (EPHB1) | phosphorylation enrichment (EPHB2) | phosphorylation enrichment (FGFR1) | phosphorylation enrichment (FGFR3) | phosphorylation enrichment (Fer (mouse)) | phosphorylation enrichment (Fes) | phosphorylation enrichment (Fyn) | phosphorylation enrichment (Hck) | phosphorylation enrichment (Jak2) | phosphorylation enrichment (MERTK) | phosphorylation enrichment (c-Abl (mouse)) | phosphorylation enrichment (c-Src)
FRNKPYISWPS [CDC42BPB_Y1638_S1633Y_YF] | 1.99 | 1.77 | 1.6 | 0.457 | 0.255 | 0.33 | 0.408 | 0.427 | 0.366 | 0.552 | 0.345 | 0.414 | 0.424 | 0.417 | 0.36 | 0.445
FSLIHYARIVD [MYH7_Y582_G584R] | 1.12 | 26.8 | 4.46 | 1.13 | 0.702 | 0.63 | 0.576 | 0.819 | 0.588 | 1.29 | 0.528 | 0.506 | 1.01 | 0.418 | 0.762 | 0.426
FSQQTYFPVSN [ABCD1_Y180_R182P_YF] | 0.647 | 0.811 | 0.599 | 1.1 | 0.946 | 0.908 | 4.99 | 3.8 | 0.494 | 1.01 | 0.889 | 2.5 | 5.51 | 3.42 | 0.723 | 1.95
FTGSTYRVGDT [FN1_Y106_N104S_YF] | 0.731 | 0.482 | 0.443 | 0.631 | 0.41 | 0.384 | 0.425 | 0.431 | 0.492 | 0.703 | 0.37 | 0.404 | 0.783 | 0.551 | 0.448 | 0.484
GAPATYKGDAR [CACNA1A_Y1013_E1014K] | 1.09 | 1.17 | 0.483 | 0.432 | 0.332 | 0.422 | 0.419 | 0.452 | 0.319 | 0.52 | 0.366 | 0.384 | 0.489 | 0.384 | 0.568 | 0.401
GDEEDYYEIPG [EGFR_opt_no-pY_2015] | 0.87 | 0.67 | 1.84 | 3.2 | 0.919 | 1.26 | 6.05 | 5.79 | 2.82 | 1.64 | 1.19 | 0.963 | 1.34 | 0.811 | 0.968 | 1.32
GDNSIYVTKII [DLG1_Y349] | 0.878 | 0.661 | 0.36 | 0.748 | 0.472 | 0.693 | 0.523 | 0.537 | 0.521 | 0.782 | 0.622 | 0.863 | 0.689 | 0.524 | 0.518 | 0.768
GESSGYLRLAF [MEP1A_Y481_R476G] | 0.919 | 4.31 | 0.602 | 0.964 | 0.536 | 0.49 | 0.559 | 0.696 | 0.507 | 1.02 | 0.474 | 0.451 | 1.02 | 0.464 | 0.752 | 0.459
GFPVHYTGVSN [DNMT3B_Y815_D817G] | 0.878 | 2.09 | 1.06 | 0.545 | 0.38 | 0.424 | 0.392 | 0.413 | 0.453 | 0.598 | 0.359 | 0.438 | 0.424 | 0.361 | 0.608 | 0.358

Now from value to sequence, other results behind:

SH2 binding enrichment (Grb2 SH2) | SH2 binding enrichment (SHP2-C SH2) | SH2 binding enrichment (c-Src SH2) | Sequence | phosphorylation enrichment (AncSZ) | phosphorylation enrichment (EPHB1) | phosphorylation enrichment (EPHB2) | phosphorylation enrichment (FGFR1) | phosphorylation enrichment (FGFR3) | phosphorylation enrichment (Fer (mouse)) | phosphorylation enrichment (Fes) | phosphorylation enrichment (Fyn) | phosphorylation enrichment (Hck) | phosphorylation enrichment (Jak2) | phosphorylation enrichment (MERTK) | phosphorylation enrichment (c-Abl (mouse)) | phosphorylation enrichment (c-Src)
0.926 | 0.814 | 0.548 | FSIDFYRVGGH [NTRK2_Y707_T704I_YF] | 1.19 | 0.593 | 0.573 | 0.531 | 0.719 | 0.466 | 1.37 | 0.465 | 0.456 | 1.24 | 0.429 | 0.837 | 0.436
0.719 | 0.502 | 0.406 | FSKDNYKRVTG [PANK2_Y405_YF] | 0.397 | 0.409 | 0.412 | 0.407 | 0.393 | 0.394 | 0.452 | 0.401 | 0.396 | 0.409 | 0.383 | 0.416 | 0.369
0.917 | 0.938 | 0.482 | FSNKLHFQLEQ [PDPR_Y109_Y109H_YF] | 0.976 | 0.473 | 0.509 | 0.482 | 0.509 | 0.43 | 1.18 | 0.471 | 0.398 | 0.889 | 0.51 | 0.709 | 0.491
0.733 | 0.627 | 0.665 | FSQNICIQNRN [PKP2_Y631_Y631C_YF] | 0.766 | 0.608 | 0.524 | 0.395 | 0.584 | 0.535 | 0.903 | 0.384 | 0.392 | 0.841 | 0.388 | 0.719 | 0.44
4.69 | 4.04 | 1.89 | FVIISYVLIIR [OR1D2_Y218] | 0.994 | 0.561 | 0.325 | 0.672 | 0.727 | 0.566 | 0.733 | 0.517 | 0.508 | 0.503 | 0.527 | 0.457 | 0.517
0.928 | 0.967 | 0.83 | FVSIVYSDSGE [TSC2_Y1650_N1651S] | 0.766 | 0.439 | 0.582 | 0.444 | 0.717 | 0.403 | 1.16 | 0.506 | 0.532 | 0.952 | 0.37 | 0.529 | 0.591
1.15 | 1.31 | 0.715 | FYRKVYHLASV [RBL1_Y796] | 0.853 | 0.447 | 0.566 | 0.555 | 0.673 | 0.779 | 0.745 | 0.444 | 0.422 | 0.667 | 0.39 | 0.416 | 0.296
1.36 | 0.768 | 0.949 | GCKNRYDKDKP [THAP1_Y14] | 0.655 | 0.506 | 0.474 | 0.557 | 0.804 | 0.745 | 0.928 | 0.535 | 0.596 | 0.691 | 0.482 | 0.752 | 0.591
